One assay addresses ALPK2 (human, UniProt Q86TB3 1-2170). As to the kind of experiment: IP/MS, LZTR1 R810W-FLAG, U87. Summed up: (§1)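 Read-out: spectral counts from LC-MS/MS (Orbitrap Fusion) after MaxQuant identification. Variable modifications were Met oxidation, protein N-terminal acetylation and N/Q deamidation.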
In another assay the target is T1, ZCCHC6 (human, UniProt Q5VYS8 1-1495, limits assumed).
T1 sequence (looked up): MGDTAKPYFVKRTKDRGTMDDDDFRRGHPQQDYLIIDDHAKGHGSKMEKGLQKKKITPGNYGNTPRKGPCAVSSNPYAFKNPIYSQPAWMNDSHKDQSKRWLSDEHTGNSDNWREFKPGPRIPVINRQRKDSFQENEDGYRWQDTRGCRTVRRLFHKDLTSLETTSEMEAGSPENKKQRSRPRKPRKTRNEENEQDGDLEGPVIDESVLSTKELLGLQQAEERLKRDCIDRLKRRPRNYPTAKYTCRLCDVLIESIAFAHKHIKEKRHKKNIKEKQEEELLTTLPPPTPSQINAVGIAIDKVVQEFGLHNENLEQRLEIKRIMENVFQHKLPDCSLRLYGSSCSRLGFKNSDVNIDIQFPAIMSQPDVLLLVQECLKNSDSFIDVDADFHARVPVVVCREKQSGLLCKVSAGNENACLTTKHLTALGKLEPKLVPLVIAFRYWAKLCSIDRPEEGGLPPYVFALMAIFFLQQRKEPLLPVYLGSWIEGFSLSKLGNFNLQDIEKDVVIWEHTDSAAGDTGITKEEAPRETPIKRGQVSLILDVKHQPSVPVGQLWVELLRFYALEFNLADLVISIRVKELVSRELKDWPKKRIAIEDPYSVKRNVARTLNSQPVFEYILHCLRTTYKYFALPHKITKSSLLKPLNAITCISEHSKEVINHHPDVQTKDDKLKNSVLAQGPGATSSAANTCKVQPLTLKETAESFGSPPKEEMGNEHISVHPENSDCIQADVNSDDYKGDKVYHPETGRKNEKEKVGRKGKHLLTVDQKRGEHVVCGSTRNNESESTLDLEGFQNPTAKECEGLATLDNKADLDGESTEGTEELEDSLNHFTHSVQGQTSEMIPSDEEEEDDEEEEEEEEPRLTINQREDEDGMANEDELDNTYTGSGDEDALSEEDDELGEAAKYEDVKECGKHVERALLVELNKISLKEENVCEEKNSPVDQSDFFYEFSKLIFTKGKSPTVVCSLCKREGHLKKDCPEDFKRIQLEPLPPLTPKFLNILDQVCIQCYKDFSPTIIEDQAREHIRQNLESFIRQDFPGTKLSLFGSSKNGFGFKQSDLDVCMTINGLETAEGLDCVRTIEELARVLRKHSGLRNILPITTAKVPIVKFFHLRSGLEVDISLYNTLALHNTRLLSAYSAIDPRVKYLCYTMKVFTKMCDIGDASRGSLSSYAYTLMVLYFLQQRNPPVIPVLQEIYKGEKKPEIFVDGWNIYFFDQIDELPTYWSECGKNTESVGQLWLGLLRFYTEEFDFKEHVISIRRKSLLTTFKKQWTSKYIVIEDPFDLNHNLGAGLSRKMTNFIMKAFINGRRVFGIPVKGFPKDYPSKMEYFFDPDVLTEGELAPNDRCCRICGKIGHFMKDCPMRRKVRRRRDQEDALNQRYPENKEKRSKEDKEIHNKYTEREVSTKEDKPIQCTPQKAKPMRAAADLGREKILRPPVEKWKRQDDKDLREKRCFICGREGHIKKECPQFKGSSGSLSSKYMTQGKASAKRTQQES
Put plainly: IP/MS, LZTR1 R810W-FLAG, U87. The essentials: as §1

Chain of ALPK2 (Q86TB3 whole entry, the tested form may be a part): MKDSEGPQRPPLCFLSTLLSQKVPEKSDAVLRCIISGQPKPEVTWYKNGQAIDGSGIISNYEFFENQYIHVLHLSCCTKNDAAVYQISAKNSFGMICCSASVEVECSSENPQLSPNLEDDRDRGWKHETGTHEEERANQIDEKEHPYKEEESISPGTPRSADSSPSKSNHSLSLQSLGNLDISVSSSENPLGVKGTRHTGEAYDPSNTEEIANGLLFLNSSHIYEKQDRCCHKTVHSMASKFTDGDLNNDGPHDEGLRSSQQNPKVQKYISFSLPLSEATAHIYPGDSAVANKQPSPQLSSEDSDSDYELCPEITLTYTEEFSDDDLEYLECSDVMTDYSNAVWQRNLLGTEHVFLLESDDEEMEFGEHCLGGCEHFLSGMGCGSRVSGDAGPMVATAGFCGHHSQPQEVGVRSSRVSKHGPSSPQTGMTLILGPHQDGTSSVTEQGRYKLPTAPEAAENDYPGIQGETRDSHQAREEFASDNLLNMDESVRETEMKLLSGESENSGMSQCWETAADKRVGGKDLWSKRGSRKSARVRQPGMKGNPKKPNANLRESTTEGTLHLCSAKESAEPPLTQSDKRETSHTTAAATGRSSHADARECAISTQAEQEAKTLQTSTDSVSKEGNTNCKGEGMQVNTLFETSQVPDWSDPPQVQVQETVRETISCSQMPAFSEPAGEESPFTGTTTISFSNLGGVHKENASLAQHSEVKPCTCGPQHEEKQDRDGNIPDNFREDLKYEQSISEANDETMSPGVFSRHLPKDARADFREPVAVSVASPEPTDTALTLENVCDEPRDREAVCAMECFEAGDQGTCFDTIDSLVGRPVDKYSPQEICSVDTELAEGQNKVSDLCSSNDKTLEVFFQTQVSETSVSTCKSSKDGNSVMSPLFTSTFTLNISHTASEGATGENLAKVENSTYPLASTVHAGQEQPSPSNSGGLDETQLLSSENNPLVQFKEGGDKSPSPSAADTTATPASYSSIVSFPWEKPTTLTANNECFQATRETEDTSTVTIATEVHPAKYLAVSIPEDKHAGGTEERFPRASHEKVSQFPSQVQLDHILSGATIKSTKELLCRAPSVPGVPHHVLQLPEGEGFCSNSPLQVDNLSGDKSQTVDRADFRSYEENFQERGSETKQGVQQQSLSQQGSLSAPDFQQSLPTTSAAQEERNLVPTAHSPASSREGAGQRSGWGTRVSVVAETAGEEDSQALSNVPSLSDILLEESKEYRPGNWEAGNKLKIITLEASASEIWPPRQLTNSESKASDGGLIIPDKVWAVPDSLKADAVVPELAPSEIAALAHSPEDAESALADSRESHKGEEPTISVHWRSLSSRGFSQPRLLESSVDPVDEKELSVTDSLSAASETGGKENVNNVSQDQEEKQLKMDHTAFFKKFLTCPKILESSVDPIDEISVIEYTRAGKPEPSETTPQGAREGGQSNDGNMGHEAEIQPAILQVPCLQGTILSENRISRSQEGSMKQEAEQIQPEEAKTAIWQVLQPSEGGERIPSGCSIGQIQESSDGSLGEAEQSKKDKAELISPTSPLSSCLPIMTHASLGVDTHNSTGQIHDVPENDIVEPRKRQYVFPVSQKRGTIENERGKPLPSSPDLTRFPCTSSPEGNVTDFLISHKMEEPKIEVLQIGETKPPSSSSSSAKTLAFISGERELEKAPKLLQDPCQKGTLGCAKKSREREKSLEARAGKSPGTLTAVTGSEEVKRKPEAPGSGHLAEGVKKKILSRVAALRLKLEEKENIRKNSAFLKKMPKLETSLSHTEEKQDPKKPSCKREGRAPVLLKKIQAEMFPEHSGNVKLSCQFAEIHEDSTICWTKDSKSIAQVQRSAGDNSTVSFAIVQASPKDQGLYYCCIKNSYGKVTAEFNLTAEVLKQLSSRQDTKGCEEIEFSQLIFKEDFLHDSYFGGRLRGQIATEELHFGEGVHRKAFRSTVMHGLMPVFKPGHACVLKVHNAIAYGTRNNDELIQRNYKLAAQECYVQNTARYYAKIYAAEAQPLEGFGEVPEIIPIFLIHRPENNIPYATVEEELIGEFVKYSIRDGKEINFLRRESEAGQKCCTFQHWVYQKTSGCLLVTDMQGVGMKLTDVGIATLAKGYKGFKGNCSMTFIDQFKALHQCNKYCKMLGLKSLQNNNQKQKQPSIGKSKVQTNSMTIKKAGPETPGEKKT

B1: LZTR1 R810W-FLAG (other, human, UniProt Q8N653 1-840, looked up)
chain: MAGPGSTGGQIGAAALAGGARSKVAPSVDFDHSCSDSVEYLTLNFGPFETVHRWRRLPPCDEFVGARRSKHTVVAYKDAIYVFGGDNGKTMLNDLLRFDVKDCSWCRAFTTGTPPAPRYHHSAVVYGSSMFVFGGYTGDIYSNSNLKNKNDLFEYKFATGQWTEWKIEGRLPVARSAHGATVYSDKLWIFAGYDGNARLNDMWTIGLQDRELTCWEEVAQSGEIPPSCCNFPVAVCRDKMFVFSGQSGAKITNNLFQFEFKDKTWTRIPTEHLLRGSPPPPQRRYGHTMVAFDRHLYVFGGAADNTLPNELHCYDVDFQTWEVVQPSSDSEVGGAEVPERACASEEVPTLTYEERVGFKKSRDVFGLDFGTTSAKQPTQPASELPSGRLFHAAAVISDAMYIFGGTVDNNIRSGEMYRFQFSCYPKCTLHEDYGRLWESRQFCDVEFVLGEKEECVQGHVAIVTARSRWLRRKITQARERLAQKLEQEAAPVPREAPGVAAGGARPPLLHVAIREAEARPFEVLMQFLYTDKIKYPRKGHVEDVLLIMDVYKLALSFQLCRLEQLCRQYIEASVDLQNVLVVCESAARLQLSQLKEHCLNFVVKESHFNQVIMMKEFERLSSPLIVEIVRRKQQPPPRTPLDQPVDIGTSLIQDMKAYLEGAGAEFCDITLLLDGHPRPAHKAILAARSSYFEAMFRSFMPEDGQVNISIGEMVPSRQAFESMLRYIYYGEVNMPPEDSLYLFAAPYYYGFYNNRLQAYCKQNLEMNVTVQNVLQILEAADKTQALDMKRHCLHIIVHQFTKVSKLPTLWSLSQQLLLDIIDSLASHISDKQCAELGADI
notes: Stably expressed in U87 cells by lentivirus; also called LZTR1-FLAG-R810W; LZTR1 RW; not shown: FLAG tag
Consider B1, for which the binding result with ALPK2 and with ZCCHC6 was “binds” throughout.
